Results as given in the supplement of paper PMC12636428.

System: Saccharomyces cerevisiae
Assay: transcriptional activation domain activity (GFP:mCherry ratio, weighted mean of sorted bins, harmonized to initial dataset scale) (arbitrary fluorescence ratio units); higher = stronger transcriptional activation
Conditions: beta-estradiol 1 µM; induction time 4 h
Outline: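 Each value is an activation activity: the read-weighted mean of bin median fluorescence, averaged across barcodes, then mapped linearly to the initial dataset scale. The tiles, fused to an estradiol-inducible synthetic transcription factor, sat at the yeast URA3 locus in GFP-reporter diploids. Cells spent 4 hours at 30 °C in SC with 1 uM beta-estradiol before sorting into 8 GFP:mCherry bins, and tiles below 50 reads were removed.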

Sequence | transcriptional activation domain activity
PRVVELQKEVIAYNKRLLALNIRDHQVQYAKLNIFYCFGLFWYRVLKLLVLSA | 38500
PSASLSFVSFFFFFLFLPLTFSSSYFFFLPFSSFPLFSSLSSTHIWSFLLSPL | 39800
PSASTRSAKSGSKGKGSKTTTVGSGSDTEKESAKMASSRSSKHSSSSRKDKSS | 29200
PSCCLSFFPDFSFFSVFFSLLVYFPFRALYDLLFVDLLLILFLFILIFFHLFL | 33000
PSDSRSRSRSRSASRKRGGAGRGGRSDSSDSEGDNSRRRQVSPARRRQRPARG | 38300
PSEEAAAAAVEEEEDVTQPEKPKDPEPTPVQPKATPAPAPTPAKPAVPKSWAS | 37300
PSEEKTVQKPDTAVAPPEDKAEPTPDATKPKEKKSRKKSKKAAEEKADGASTS | 25300
PSEKPANGAKGKGGKPRGKSGEKDNGAAEFGADPKNADKKSSNESSGAKSRPK | 37900
PSFLWWLPLVLFVMATGIFVILSFLLFLIIHGLYYIVPLWQKCGSIHVCVSVL | 52700
PSGGLFGNNNASTTTGGIGLFGNNNAAASTGGGLFGKPAASTTTATTGGLFGA | 17400
PSGIIVLVICTLGLLCCTIMIILIFYFRYFKPIMSSSPIFCYLQLVGISMAYI | 46000
PSGSPLTPSSGKGGRSASLGDAESNKTGEPYGPHSGKAYFEVCVNVGKHAIRL | 37500
PSHEYNKTLSALLILLESSAERCFKDLTLLRAAGVTLLGRLFLVFPVFFNPRH | 57600
PSHRSVTPFLGQQQQLQSLVPLTPSALFGGANFNQSGNIADSSLSFTFTNSSN | 49800
PSIFFLLFICYFVICSIHVDLCYYDSLFNCLFFISSMFSHNYLFFCLCLCYHV | 64200
PSIRRCPVSFGDIDMEAELACIQYIREVLLPELVPCAYILLSYILHLLHEVSL | 77000
PSLKCVSLTYDELVRIVAQLLQKAFFKRFPSLKERFYSLVLSFLKKAMVPTNK | 40500
PSLLVLAAHTLAKHGVLAPMSTLITRFLELPFQIKRPQLYYNLLLHAISRFPS | 70100
PSLPPSHPVPSLSLFCFFVFFFAFFFFFFMPIFYYNLLISHFPFCRCWRCLHM | 26200
PSLYLVTFFRDSLEMIMISLKYFRYEAHKVVNILPILPDLYTIVRTLVNKCVR | 43700
PSNQAFWIACLFSSVMYHLLFHLLLLFFSLLFLFFLFFLPSYHVLFHFHHMTG | 47700
PSNSLEDSIQQTVKARRKLSARPVLRVRIPNNNFSSNSAIPSEPSSASSTSAN | 19300
PSPFPPSLSPPLFPPFPPLPLCPPFLPLFPPSPLSPPFLPLFPPLFLPLSFPP | 50200
PSPLPKHQIIREASNVRNITKMKKYDSTFYLHRDHVNYEEYGVDSLLFSYPED | 58100
PSPPKCQVPTLYAVIFRILAYLRLLDAFLFHVYILLTLHELWLIIWIPHHHQS | 41400

Sequence | transcriptional activation domain activity
PSPRRRRDEDRPRRGGGGFRWKGEERRDRRERPRSPRPEKRRRSKSPRPEKKK | 27500
PSPVLCFRQLCFLVYLIFFNFLLLFCLFAKAEGGIPSCPLQPLDSLYFSLQGF | 49400
PSRLTSPSSRRLPSTPGPHPRKSTPRSKPPPSSPARRRSSSTTPTGRPSQPSS | 24900
PSRPATPPRSSSAPTGISPNPRTRTCSSASCCASSRSPPSTTSPPTPPAAAAP | 51100
PSRTSCATPSPTSSTSAVPSARSSTGPRSRSRSRTASTSSTRASAAPSCSCAR | 10500
PSSLVAQGQCAVAGDDVLEALAIRGIDFKLYAGILLLIALVYRLLLYIVLVFK | 66100
PSSTARRKLLLIYIDFKFFLAASWFRLCNLTLIGSVWWPIWGYMCWILSGPLF | 67300
PSTSPTPSSACAPSAASSTRSPPSTPARGGATSGTCCASACAASTPCVTRYTG | 11500
PTAPNSSLPGCDVWDDIVTAAYYVNPCFNFYHLIDFCPYLWDELGFPSLAWGP | 72200
PTASTIYEEAESQSSYLDDMFRTSQGGRPVTQNSISSIGQGPLRSSYSMAYDS | 51300
PTCALLSLQPVLPSPFGPPSSLLPVTSLFYLSPPSLLCILALSSFLLILPLLF | 38800
PTGESLLDAYWKTLLGGITYGDPNGMEALFWDWYQGILPFRMLQLFHLDRVWF | 48500
PTGRSSTPTSASSTRARRTRGSASARSSRAAGGGSCSSTCRSPPGRVPRTSVS | 36800
PTLLVALLALLIPHILIFIAKKINTIMTLSALHDRLMIRYYKFLVINVLVFFC | 39300
PTPSGDPEEEEEGEGEEGGEERGGGGGGGGGKKKNHAGAIAGGVVGGVAVIGL | 24600
PTQEVLRFCKRELMHKLWNLLMDDDFLHAYMHGIVVCCGDGVLRRLFPRIFTY | 44400
PTRRSFSSAWFLCIRYFSLCSNIVVIVDTFGTFSYNVPMYGLSKKLLMWLACV | 47900
PTTSFFFWYRLYCSVLLSIGILISIPTLWILPSCFLPNHWKALWVVVLSFLGW | 52400
PTTTTTPSSPSTTCRSPTRRRAPRRRSACTGSRTRRGSPQSRRRCCRRTTSTT | 28900
PTWGLVLRLGCGIVYIVIFLVYVGLGGVFPGRYTYWGLSADNAGIMVYVLLCV | 60400
PVALLSLCFNLCFQTCMHIVSLDLHYHFPNLSLGRSLNILRAFSFFVMIFFIS | 88100
PVAPPAASQPHPTANTMQATHAPPSSGRRRGRPKGSKNKPKPEAPTGPEASAG | 6790
PVIFRKRPTYLMFISVCLMYIYLFAVVYIRPYKLTRNNHVAIISWITIVIFLF | 44400
PVKADEPAAPVEAVKETETAAPVEDAAAPEVAAEAPKEEVKEEKVRSLRTAIS | 27300
PVKAIEAPLAEEKSEEKEAEPEKAEEAEEEVTEKPAAKKAKGGKKGAKGKKVK | 46800

Sequence | transcriptional activation domain activity
PVKETETAAVPEVTAEPEAEAAKPAEAPKEEKKEEKKEAKSPKVSRRLSQRVE | 58300
PVKKLYLLVQYIQDLGRVCGIPVSPLCCVQALQAKLGPIAQACVSARIWARWR | 67400
PVKPASKKPAEKAKEKAKEAPKEKAKAKEPAKAKEDKPKAKPASKKAAAKPAA | 34700
PVLEQKRCIRAMEEMIILCKEYIRIARPQISACLISALSFDELRATAFSCWVA | 48700
PVNFIFVKLAKVFPLDYLFMVLLIIYFFLVTLTGIITLGVRFFWITLFRIRRG | 19400
PVNYLRLTNIGVCDMDDGYDLACHLMLNEPDADSCALLRVLIHRLKECTNLNI | 47100
PVPAAAASPVAVPQPAPEQSKPVVKEEKKPEKKVDEERKRKGTKEGQQQQQQQ | 16700
PVPAKEPAAVEAPEKEVAEEAKLEDGEIADEAKADDSAEEKPADGAAAAAAAP | 34700
PVPFDPPMPVDGLGFLPGDGWMDAMDDIGPLEALDLGFLPVDFWEPHFNRQWN | 135000
PVRGIVELPRNSFPDEVLHFTCLTIVCAAIFFLFSSFLFFFCLLHLSCYLFVP | 30800
PVVAPKQPRRRAVAGERYERLAQVGEGTYGKVYKARNTGSGALVALKRIRMEQ | 68200
PVVDLNSCFSNGFNNEKQEIEMETDDSPILLMSSSASRENSNTFSVIQRTPDG | 52900
PWLLLIRYLALGTNLSMVVLTFGIFGLQWNRWISILTLRVYTMFNRKRVILWL | 61100
PWTFDLGLFGLGLFGLFGLFGLFGLFGLGPFGLGLFGPLDFLALDFLDLWTFW | 18400
PYIALIVLDVILIKLGSGRHIEYIQYVLTRATVKETEVLDFYAHIIYTTTLLI | 28800
PYIAYPLKPCLSGPLCELYPSTSNLWAMCLHLILVCIQVPFLLSTPFWLLLPL | 74200
PYILPLLILSKRLHSIFMLRCFNDCFAILFLFLAILCFQRRHWTVGSLIYSWG | 48300
PYIVYPLKPCLSGPLCELYPSVMNLWAMCLHLILLCIQIPFLLSIPFWLLFPL | 86900
PYLFIIRLLRLYKLPLIFMTSPVYIKTLKMMQNALGIGQTVAVIFPLTFWFCI | 27600
PYLSRLGEKNILADLMEFYRCKESWSLQSGLVFIRRIILQQVPIDVRILCAFL | 35500
PYQSSVDVLPRPLPVLRWTWVIVGISCFYFWCVSIPAPFLLFRICFPHFNLLT | 50500
PYSLDIKNTVLDSADLNDIQNQETSLNLGLPPLSFDSPLPVTETIPSTTDNSL | 73400
QAAAPAEKPATAAAGEAEKDGAAARGASTRGRGRGRGRGGRGGATAARRPRAD | 46200
QAAFRQRRANYIATLEETGWVVSILLYLHRSSLSFSAVTSLESVVLQLQDSCR | 53400
